Reference: US20230374140A1 (Memorial Sloan Kettering, published 2023)

Molecular target: T1, NDC80 Peptide A … / HLA-A*02:01 complex (human)
T1 construct: whole, on cells; On peptide-pulsed T2 cells (HLA-A*02:01+); also called NDC80/HLA-A*02:01 complex; NDC80/MHC I
Experiment: FACS, scFv phage on peptide-loaded T2 cells
From the text: 34 human phage scFv libraries were used to pan against NDC80/HLA-A*02:01 complex. In order to avoid the conformational change of MHC I complex introduced by immobilizing the protein complex onto plastic surfaces, cell panning was used in place of conventional plate panning. In cell panning, the human scFv phage libraries were first mixed with T2 cells loaded with control peptides to remove scFv phage clones that bind to T2 cells alone or MHC alone. […] T2 is a TAP-deficient, HLA-A*02:01⁺ lymphoblast cell line that express low amounts of HLA-A*02 on the cell surface and can only present exogenous peptides. […] After extensive washing with PBS, peptide-loaded T2 cells with bound scFv antibody phage were spun down. […] The panning was performed for 3 rounds to enrich scFv phage clones that bound NDC80/HLA-A*02:01 specifically.

Row | Binder | binding result
1 | Clone 5 scFv phage clone (scFv, V domains shown) VH: QLQLQESGPGLVKPSGTLSLTCAVSGGSISSSNWWSWVRQPPGKGLEWIGEIYHSGSTNYNPSLKSRVTISVDKSKNQFSLKLSSVTAADTAVYYCARFIYGSSSSQTDTWGQGTLVTVSS VL: QSVLTQPPSVSAAPGQKVTISCSGSSSNIGSNYIYWYQQFPGTAPKLLIYDDNKRPSGIPDRFSGSRSGTSATLGITGLQTGDEADYYCGTWDSPLVAWVFGGGTKLTVLG | binds
2 | Clone 4 scFv phage clone (scFv, V domains shown) VH: QVQLQQWGAGLLKPSETLSLTCAVYGGSFSGYYWSWIRQPPGKGLEWIGEINHSGSTNYNPSLKSRVTISVDTSKNQFSLKLSSVTAADTAVYYCARGVPYDYWGQGTLVTVSS VL: QSVLTQPPSVSAAAGQKVTISCSGSRSNIGSNFVSWYQLLPGTAPRLLIYDNNVRPSGIPDRFSGSKSGSSATLGITGLQTGDEADYYCGTWDSSLIAGVFGGGTKLTVLG | binds
3 | Clone 12 scFv phage clone (scFv, V domains shown) VH: QVQLQESGPGLVKPSGTLSLTCAVSGGSISSSNWWSWVRQAPGKGLEWIGEIYHGGSTNFNPSLKSRVTISVDKSKNQFSLNLTSVTAADTAVYYCARYASSSHDFWGQGTLVTVSS VL: QSVLTQPPSVSAAPGQRVTIYCSGSRSNIVSNYVSWYQQLPGTAPKLLIYDNNKRPSGIPDRFSGSKSGTSATLGITGLQTGDEADYYCGTWDSSLSAYVFGTGTKVAVLG | binds
4 | Clone 9 scFv phage clone (scFv, V domains shown) VH: QVQLQESGPGLVKPPGTLSLTCAVSGGSISSSNWWSWVRQPPGKGLEWIGEIYHSGSTNYNPSLKSRVTISVDKSKNQFSLKLSSVTAADTAVYYCARYEQGSHDSWGQGTLVTVSS VL: QSVLTQPPSVSAAPGQKVTISCSGSSSNIGSNYISWYQQLPGTAPKLLIYDNSKRPSGIPDRFSGFKSGTSATLGITGLQTGDEADYYCGTWDSSLSAYVFGSGTKVTVLG | binds
5 | Clone 8 scFv phage clone (scFv, V domains shown) VH: QLQLQESGPGLVKPSETLSLTCTVSGDSISGYYWSWIRQPPGKGLEWIGEINHSGSTNYNPSLKSRVTISVDTSKNQFSLKLSSVTAADTAVYYCARYYSGFYSSDGWGQGTLVTVSS VL: QSVLTQPPSVSAAPRQKVTISCSGSSSNIGSNYVSWYQQLPGTAPKLLIYDNNKRPSGIPDRFSGSRSGTSATLGITGLQTGDEADYYCGSWDSSLSVYVFGTGTKVTVLG | binds
6 | Clone 2 scFv phage clone (scFv, V domains shown, also called phage clone 2) VH: QVQLVQSGAEVKKPGSSVKVSCKASGGTFSSYAISWVRQAPGQGLEWMGWISAYNGNTNYAQKLQGRVTMTTDTSTSTAYMELRSLRSDDTAVYYCARKGFYSGFDSWGQGTLVTVSS VL: QSVLTQPPSVSAAPGQKVTISCSGSSSNIGSNYVSWYQQLPGTAPKLLIYDNTKRPSGIPDRFSGSKSGSSATLGITGLQTGDEADYYCETLDSSLSAYVFGTGTKVTVLG | binds
7 | Clone 15 scFv phage clone (scFv, V domains shown) VH: QVQLQESGPGLVKPSGTLSLTCAVSGGSISSSNWWSWVRQPPGKGLEWIGEIYHSGSTNYNPSLKSRVTISVDKSKNQFSLKLSSVTAADTAVYYCARYPGFVWDLWGQGTLVTVSS VL: QSVLTQPPSVSAAPGQKVTISCSGSSSNIGSNYVSWYQQLPGTAPKLLIYDNNKRPSGIPDRFSGSKSGTSAILGITGLQTGDEADYYCGTWDSSLTAGVFGTGTKVTVLG | binds
8 | Clone 6 scFv phage clone (scFv, V domains shown) VH: QVQLQQWGAGLLKPSETLSLTCAVYGGSFSGYYWSWIRQPPGKGLEWIGEINHSGSTNYNPSLKSRVTISVDTSKNQFSLKLSSVTAADTAVYYCARLEGSYYDVWGQGTLVTVSS VL: QSVLTQPPSVSAAPGQKVTVSCSGTTSDIGSNYVTWYQQLPGTTPKLIIYDNNKRPSGIPDRFSGSKSGTSGTLGITGLQTGDEADYYCGTWDSSLNTFVFGTGTKVTVLG | binds
9 | Clone 16 scFv phage clone (scFv, V domains shown) VH: QVQLVQSGAEVKKPGASVKVSCKASGYTFTSYYMHWVRQAPGQGLEWMGIINPSGGSTSYAQKFQGRVTMTRDTSTSTVYMELSSLRSEDTAVYYCARRGWLSWGYYGMDVWGQGTTVTVSS VL: not shown | binds
